Measured values from patent US7176008.

Assays:
thrombin = experiment: cell-based or functional assay
[1] = target: human carboxypeptidase N (human) (UniProt P15169)
Chain of human carboxypeptidase N (human) (P15169 21-458 limits assumed, chain 1 of 2): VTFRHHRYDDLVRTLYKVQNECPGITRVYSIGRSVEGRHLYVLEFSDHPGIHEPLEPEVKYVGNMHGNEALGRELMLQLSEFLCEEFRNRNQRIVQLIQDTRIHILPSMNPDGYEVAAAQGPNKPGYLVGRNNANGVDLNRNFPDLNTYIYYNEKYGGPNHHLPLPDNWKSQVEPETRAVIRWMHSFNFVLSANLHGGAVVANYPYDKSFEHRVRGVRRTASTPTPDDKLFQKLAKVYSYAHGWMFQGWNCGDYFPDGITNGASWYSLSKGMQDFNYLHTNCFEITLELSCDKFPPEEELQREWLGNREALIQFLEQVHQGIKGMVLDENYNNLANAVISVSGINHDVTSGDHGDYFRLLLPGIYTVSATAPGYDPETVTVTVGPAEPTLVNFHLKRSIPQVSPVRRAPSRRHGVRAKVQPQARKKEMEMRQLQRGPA
Chain of human carboxypeptidase N (human) (P22792 22-545 limits assumed, chain 2 of 2, further chain): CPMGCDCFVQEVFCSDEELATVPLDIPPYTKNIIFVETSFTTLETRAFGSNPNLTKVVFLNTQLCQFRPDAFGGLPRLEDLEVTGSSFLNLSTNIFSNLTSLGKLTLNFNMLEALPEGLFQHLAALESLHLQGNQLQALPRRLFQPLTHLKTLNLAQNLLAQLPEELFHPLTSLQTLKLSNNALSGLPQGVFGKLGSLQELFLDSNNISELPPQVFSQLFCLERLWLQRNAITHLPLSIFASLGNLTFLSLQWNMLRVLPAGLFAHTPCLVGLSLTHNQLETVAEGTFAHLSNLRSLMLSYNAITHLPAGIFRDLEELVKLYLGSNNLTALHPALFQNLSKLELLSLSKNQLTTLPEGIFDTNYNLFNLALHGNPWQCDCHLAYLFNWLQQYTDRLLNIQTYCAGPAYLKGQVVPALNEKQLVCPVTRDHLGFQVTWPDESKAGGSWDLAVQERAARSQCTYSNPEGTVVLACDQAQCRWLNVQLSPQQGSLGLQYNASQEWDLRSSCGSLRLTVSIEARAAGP

rabbit lung thrombomodulin
increase of TAFIa generation in diluted human plasma (thrombin): 30 to 35 fold

protamine sulfate (grade X from salmon, Mr 5,000) (peptide)
Ki [1]: 970 nM
